Here are results for 1 substance from US20250270529.

In this series the test system is T1, Cas13f v3 (v2+D160A&D642A) (synthetic construct).
T1 sequence: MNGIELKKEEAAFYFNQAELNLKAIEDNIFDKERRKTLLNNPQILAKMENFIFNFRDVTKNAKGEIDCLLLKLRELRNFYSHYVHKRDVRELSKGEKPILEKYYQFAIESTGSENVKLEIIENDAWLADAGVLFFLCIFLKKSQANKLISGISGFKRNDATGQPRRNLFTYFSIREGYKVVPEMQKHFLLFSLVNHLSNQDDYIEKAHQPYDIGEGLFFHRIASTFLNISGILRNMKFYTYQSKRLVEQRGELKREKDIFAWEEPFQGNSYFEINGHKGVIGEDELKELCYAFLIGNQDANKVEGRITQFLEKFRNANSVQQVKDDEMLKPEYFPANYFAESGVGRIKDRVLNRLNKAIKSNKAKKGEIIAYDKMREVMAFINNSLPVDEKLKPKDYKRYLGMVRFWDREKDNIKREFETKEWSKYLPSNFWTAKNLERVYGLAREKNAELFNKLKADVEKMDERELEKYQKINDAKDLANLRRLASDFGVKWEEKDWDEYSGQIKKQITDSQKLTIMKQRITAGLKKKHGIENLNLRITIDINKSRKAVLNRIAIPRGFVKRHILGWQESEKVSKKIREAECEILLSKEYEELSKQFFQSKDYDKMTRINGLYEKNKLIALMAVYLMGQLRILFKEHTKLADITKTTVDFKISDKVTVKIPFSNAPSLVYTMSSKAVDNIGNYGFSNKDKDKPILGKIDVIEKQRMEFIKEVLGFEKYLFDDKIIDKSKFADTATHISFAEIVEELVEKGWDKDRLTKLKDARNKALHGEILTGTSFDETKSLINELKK
Kind of series: cell_activity. Conditions: HEK293T; non-targeting spacer control.

“non-targeting gRNA (DR-spacer-DR) ; mCherry reporter mRNA” returned an activity (RFP MFI (normalization reference)) of 1.
